Source: paper PMC10949841 (2024)
Changes are numbered by the printed parent chain. In names and notes the source's numbering stands.

T1: HAdV-C5 hexon labeled with AlexaFluor594 (human adenovirus C5 (HAdV-C5), UniProt P04133 1-952, AlexaFluor594 label (sites not given))
T1 chain: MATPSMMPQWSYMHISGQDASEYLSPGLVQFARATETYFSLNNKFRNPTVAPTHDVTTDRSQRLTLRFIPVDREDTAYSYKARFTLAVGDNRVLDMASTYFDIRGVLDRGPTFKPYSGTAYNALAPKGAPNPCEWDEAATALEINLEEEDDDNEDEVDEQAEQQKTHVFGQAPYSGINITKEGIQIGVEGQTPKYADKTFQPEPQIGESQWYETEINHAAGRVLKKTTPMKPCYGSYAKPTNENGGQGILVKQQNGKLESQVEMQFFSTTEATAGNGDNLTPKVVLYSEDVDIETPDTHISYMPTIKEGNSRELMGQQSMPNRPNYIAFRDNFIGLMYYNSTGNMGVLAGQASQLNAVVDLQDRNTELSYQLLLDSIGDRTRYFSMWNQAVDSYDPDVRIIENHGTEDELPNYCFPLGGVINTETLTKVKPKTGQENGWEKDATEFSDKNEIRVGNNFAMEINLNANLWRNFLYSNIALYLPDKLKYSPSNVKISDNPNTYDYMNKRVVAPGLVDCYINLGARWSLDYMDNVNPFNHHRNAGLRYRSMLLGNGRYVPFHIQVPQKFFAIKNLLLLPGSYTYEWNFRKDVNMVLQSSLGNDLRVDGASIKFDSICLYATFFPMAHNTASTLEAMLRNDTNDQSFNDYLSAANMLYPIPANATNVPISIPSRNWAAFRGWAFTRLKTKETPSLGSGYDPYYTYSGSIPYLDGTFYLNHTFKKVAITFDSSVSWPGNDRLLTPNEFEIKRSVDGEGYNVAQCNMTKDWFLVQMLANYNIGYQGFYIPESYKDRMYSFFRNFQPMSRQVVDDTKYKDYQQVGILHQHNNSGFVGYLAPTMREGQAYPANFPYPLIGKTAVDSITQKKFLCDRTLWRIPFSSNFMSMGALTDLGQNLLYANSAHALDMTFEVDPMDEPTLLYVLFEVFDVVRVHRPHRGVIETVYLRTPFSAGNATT

B1: hLF mut3 (K28A) (natural protein)
chain: GRRRSVQWCAVSQPEATKCFQWQRNMRAVRGPPVSCIKRDSPIQCIQAIAENRADAVTLDGGFIYEAGLAPYKLRPVAAEVYGTERQPRTHYYAVAVVKKGGSFQLNELQGLKSCHTGLRRTAGWNVPIGTLRPFLNWTGPPEPIEAAVARFFSASCVPGADKGQFPNLCRLCAGTGENKCAFSSQEPYFSYSGAFKCLRDGAGDVAFIRESTVFEDLSDEAERDEYELLCPDNTRKPVDKFKDCHLARVPSHAVVARSVNGKEDAIWNLLRQAQEKFGKDKSPKFQLFGSPSGQKDLLFKDSAIGFSRVPPRIDSGLYLGSGYFTAIQNLRKSEEEVAARRARVVWCAVGEQELRKCNQWSGLSEGSVTCSSASTTEDCIALVLKGEADAMSLDGGYVYTAGKCGLVPVLAENYKSQQSSDPDPNCVDRPVEGYLAVAVVRRSDTSLTWNSVKGKKSCHTAVDRTAGWNIPMGLLFNQTGSCKFDEYFSQSCAPGSDPRSNLCALCIGDEQGENKCVPNSNERYYGYTGAFRCLAENAGDVAFVKDVTVLQNTDGNNNEAWAKDLKLADFALLCLDGKRKPVTEARSCHLAMAPNHAVVSRMDKVERLKQVLLHQQAKFGRNGSDCPDKFCLFQSETKNLLFNDNTECLARLHGKTTYEKYLGPQYVAGITNLKKCSTSPLLEACEFLRK
B2: hLF mut1 (R24S) (natural protein)
chain: B1 chain with R24S, A28K
B3: hLF mut4 (R30A) (natural protein)
chain: B1 chain with A28K, R30A
B4: hLF mut6 (K277S/K280A/K285S) (natural protein)
chain: B1 chain with A28K, K277S, K280A, K285S
B5: human lactoferrin (hLF), wild type (natural protein)
chain: B1 chain with A28K
B6: hLF mut8 (E687A/K691A) (natural protein)
chain: B1 chain with A28K, E687A, K691A
B7: hLF mut2 (R27A) (natural protein)
chain: B1 chain with R27A, A28K
B8: hLF mut7 (N673A/S678A) (natural protein)
chain: B1 chain with A28K, N673A, S678A
B9: hLF mut5 (R24S/R27A/K28A/R30A) (natural protein)
chain: B1 chain with R24S, R27A, R30A

Target: T1, HAdV-C5 hexon labeled with AlexaFluor594
Test: MST

In order of falling Kd:
1. B9  602 nM
2. B4  584 nM
3. B6  370 nM
4. B2  247 nM
5. B3  207 nM
6. B8  207 nM
7. B7  167 nM
8. B1  125 nM
9. B5  117 nM
